Data on three molecules can be found in US8591913B2, “Methods of decreasing adipose tissue” (Toru Miyazaki, priority 2009, dated 2013).

“Also recorded” adds a separate entry of the source.

Data set [1] deals with T1, FAS (Mus musculus, UniProt P19096).
T1 construct: cell lysates were prepared, and the enzyme activity of FAS was measured; endogenous in cells; host or cells: 3T3-L1 cells (differentiating or differentiated)
The data set can be described thus: FAS enzyme activity in lysates of loaded 3T3-L1 cells (malonyl-CoA consumption). It is filed as cell-based. The settings on record: C75 25 μM versus AIM 5 μg/mL, schedules (d) and (f). Here is the method:
Whether AIM affected an enzyme activity of FAS or not was examined.
In addition, as a schedule (f) similar to the above-mentioned schedule (e), AIM was loaded for 4 days (day 8 to day 12) after the 3T3-L1 cells differentiated, subsequently the cells were collected on the 10th day (day 12) after the initiation of the differentiation induction, cell lysates were prepared, and the enzyme activity of FAS was measured. The enzyme activity of FAS was measured based on a consumption amount of malonyl-CoA.
(§1) In addition, using a FAS inhibitor (C75) in place of AIM, the FAS inhibitor at a concentration of 25 μM was loaded according to the schedules (d) and (f), and as was the case with the above-mentioned AIM, the cells were collected on the 2nd day (day 4: schedule (d)) and 10th day (day 12: schedule (f)) after the initiation of the differentiation induction, and the enzyme activity of FAS was measured.
Further, for comparison, the cells cultured without loading AIM in the above-mentioned schedule (a) were also collected at times of the 2nd day (day 4) and 10th day (day 12) after the initiation of the differentiation induction, and the enzyme activity of FAS was measured.
FIG. 11B and FIG. 11C illustrate the results of measuring the FAS enzyme activity (Fatty acid synthase activity) (nmol NADPH/min/mg protein). FIG. 11B illustrates the results obtained on the 2nd day (day 4) after the initiation of the differentiation induction in the case of loading no AIM according to the schedule (a) (None), the case of loading AIM according to the schedule (d) (AIM (5 μg/mL)), and the case of loading the FAS inhibitor according to the schedule (d) (C75 (25 μM)). FIG. 11C illustrates the results obtained on the 10th day (day 12) after the initiation of the differentiation induction in the case of loading no AIM according to the schedule (a) (None), the case of loading AIM according to the schedule (f) (AIM (5 μg/mL)), and the case of loading the FAS inhibitor according to the schedule (f) (C75 (25 μM)).

Data set [2] relates to mice. Particulars: administration of C75 to mice, reported; cited from earlier work.
Data set [3] relates to 3T3-L1 preadipocytes. The data set can be described thus: Differentiation of 3T3-L1 preadipocytes into mature adipocytes, oil-red-o staining. It is filed as cell-based, mouse. Particulars: mouse AIM and human AIM compared, in vitro. As for the experimental part: In order to examine how AIM produced by the macrophages infiltrating the adipose tissues works on surrounding adipocytes, an experiment in which AIM was loaded during a culture process of differentiating 3T3-L1 preadipocytes into the mature adipocytes was performed.
A recombinant mouse AIM protein and a recombinant human AIM protein were used as AIM. Those recombinant AIM proteins were prepared by culturing human-derived HEK293T cells transfected with a vector expressing mouse AIM or human AIM and isolating and purifying the protein from its culture supernatant. The same recombinant AIM proteins were also used as AIM in other examples shown below. AIM was loaded by adding AIM at a concentration of 5 μg/mL to the culture medium.
Differentiation induction (Induction) of the 3T3-L1 cells was initiated by first culturing the 3T3-L1 cells for 4 days (day −2 to day 2) to proliferate the cells (Cell proliferation) and subsequently culturing the cells in a culture medium containing insulin, dexamethasone (DEX), and isobutylmethylxanthine (IBMX) for 2 days (day 2 to day 4). The differentiation induction was further continued by culturing the cells in a culture medium containing insulin for 2 days (day 4 to day 6).
After the period of the differentiation induction (day 2 to day 6), the culture was continued in a culture medium not containing those differentiation-inducing factors. Then, the cells on the 10th day (day 12) after the initiation of the stimuli for differentiation induction were stained with oil-red-o, and the differentiation of the 3T3-L1 cells to mature adipocytes was observed.
as §1
FIG. 12A and FIG. 12B show the results of staining the cells with oil-red-o and analyzing the gene expression by RT-PCR on the 2nd day (day 4) after the initiation of the differentiation induction in the case of loading no AIM according to the schedule (a) (None), the case of loading AIM according to the schedule (d) (AIM (5 μg/mL)), and the case of loading the FAS inhibitor according to the schedule (d) (C75 (25 μM)), respectively.

The subject of data set [4] is mature adipocytes (differentiated 3T3-L1 cells). The data set can be described thus: Induction of lipolysis in mature 3T3-L1 adipocytes (lipid droplets, glycerol and free fatty acid efflux). Particulars: mouse AIM and human AIM compared, same range of concentrations in vitro. It is filed as cell-based, mouse. As for the experimental part:
The effect of AIM on mature adipocytes was examined.
Then, the cells on the 10th day (day 12) after the initiation of the stimuli for differentiation induction were stained with oil-red-o. The number of cells having lipid droplets was counted. Further, the diameter of lipid droplets was measured in the cells having lipid droplets. For comparison, the number of the cells was counted and the diameter of lipid droplets was measured for the cells cultured in the above-mentioned schedules (a) and (d).
Further, the supernatant of the culture medium after the cells were cultured while loading AIM according to the schedule (e) was collected, and amounts of glycerol and free fatty acid (FFA) contained in the supernatant were measured by ELISA. For the comparison, the amounts of glycerol and free fatty acid in the culture supernatant obtained according to the schedule (a) were also measured.
In order to avoid adsorption of free fatty acid to albumin contained in the culture medium, the culture medium supplemented with 10% FBS (fetal bovine serum) was exchanged to a serum-free culture medium on the 10th day (day 12) after the initiation of the differentiation induction, further the cells were cultured in the serum-free culture medium for 6 hours, and subsequently the amounts of glycerol and free fatty acid contained in the supernatant of the serum-free culture medium were measured.
FIG. 7A and FIG. 7B illustrate the evaluation results of the number (per 10^4 μm^2) of cells having lipid droplets (Droplet (+) cells) and the relative diameter of lipid droplets (%) obtained according to the schedules (a), (d), and (e) (Exp. a, d, and e), respectively. The relative diameter of lipid droplets illustrated in FIG. 7B was calculated by defining the diameter of lipid droplets in the cells obtained according to the schedule (a) without AIM loading as 100%. FIG. 8A and FIG. 8B illustrate the concentration of glycerol (Glycerol Efflux, mM) and the concentration of free fatty acid (FFA Efflux, ×10 mM) in the culture medium obtained according to the schedules (a) and (e) (Exp. a and e), respectively.
In addition, FIG. 13A and FIG. 13B illustrate the results of measuring the glycerol concentration (glycerol efflux, mM) and the free fatty acid concentration (FFA efflux, ×10 mM) in the culture medium on the 10th day (day 12) after the initiation of the differentiation induction in the case of loading no AIM according to the schedule (a) (None), the case of loading AIM according to the schedule (f) (AIM), and the case of loading the FAS inhibitor according to the schedule (f) (C75), respectively.

Data set [5] concerns human mesenchymal stem cells (HMSCs). As to the kind of experiment: Adipogenesis of human mesenchymal stem cells (HMSCs) with rhAIM. The format is cell-based. As for the experimental part: In order to confirm that AIM also acts upon adipogenesis in human cells, the differentiation of human mesenchymal stem cells (HMSCs) (Lonza Walkersville Inc., USA) was stimulated in the presence or absence of recombinant human AIM (rhAIM).
That is, HMSCs were cultured in a mesenchymal stem cell basal medium (MSCBM) (Lonza Walkersville Inc.) for 10 days until the cells became confluent. Subsequently, the adipogenesis of the cells was stimulated by culturing the cells in the presence or absence of rhAIM (10 μg/mL) together with human insulin, MCGS, dexamethasone, indomethacin, and IBMX for 3 days (adipogenesis induction) (reference: Janderrova et al., Obes. Res., 11: 65, 2003). After the stimulation, the cells were cultured in MSCBM in which human insulin and MCGS had been added for an additional 10 days. Then, the cells were collected and stained with oil-red-o.
FIG. 36A, FIG. 36B, and FIG. 36C show the results of observing the cells before the stimulation of adipogenesis (Pre-stimulation), after the stimulation in the absence of rhAIM (rhAIM (−)), and after the stimulation in the presence of 10 μg/mL rhAIM (rhAIM (10 μg/mL)) under the phase contrast microscope, respectively.

Data set [6] addresses T2, FAS (Homo sapiens, UniProt P49327).
T2 construct: expressed in transfected cells; host or cells: HEK293T
The data set can be described thus: Co-immunoprecipitation of HA-tagged AIM and FLAG-tagged FAS in HEK293T cells. The format is binding. Particulars: HEK293T cells co-expressing HA-tagged mouse AIM and FLAG-tagged FAS, anti-FLAG or anti-HA antibody. Here is the method: Thus, in order to confirm the fact, first, HEK293T cells which co-expressed both AIM (mouse AIM) fused with an HA-tag and FAS fused with a FLAG-tag were produced. Also, the HEK293T cells were collected after being cultured for a predetermined period of time, its cell lysate was prepared, and an immunoprecipitation was performed using an anti-FLAG antibody.
In addition, a co-immunoprecipitation study was performed using HEK293T cells which express both FAS tagged with FLAG and mouse AIM tagged with HA, and an anti-FLAG antibody or an anti-HA antibody.

T2 sequence (P49327 whole entry): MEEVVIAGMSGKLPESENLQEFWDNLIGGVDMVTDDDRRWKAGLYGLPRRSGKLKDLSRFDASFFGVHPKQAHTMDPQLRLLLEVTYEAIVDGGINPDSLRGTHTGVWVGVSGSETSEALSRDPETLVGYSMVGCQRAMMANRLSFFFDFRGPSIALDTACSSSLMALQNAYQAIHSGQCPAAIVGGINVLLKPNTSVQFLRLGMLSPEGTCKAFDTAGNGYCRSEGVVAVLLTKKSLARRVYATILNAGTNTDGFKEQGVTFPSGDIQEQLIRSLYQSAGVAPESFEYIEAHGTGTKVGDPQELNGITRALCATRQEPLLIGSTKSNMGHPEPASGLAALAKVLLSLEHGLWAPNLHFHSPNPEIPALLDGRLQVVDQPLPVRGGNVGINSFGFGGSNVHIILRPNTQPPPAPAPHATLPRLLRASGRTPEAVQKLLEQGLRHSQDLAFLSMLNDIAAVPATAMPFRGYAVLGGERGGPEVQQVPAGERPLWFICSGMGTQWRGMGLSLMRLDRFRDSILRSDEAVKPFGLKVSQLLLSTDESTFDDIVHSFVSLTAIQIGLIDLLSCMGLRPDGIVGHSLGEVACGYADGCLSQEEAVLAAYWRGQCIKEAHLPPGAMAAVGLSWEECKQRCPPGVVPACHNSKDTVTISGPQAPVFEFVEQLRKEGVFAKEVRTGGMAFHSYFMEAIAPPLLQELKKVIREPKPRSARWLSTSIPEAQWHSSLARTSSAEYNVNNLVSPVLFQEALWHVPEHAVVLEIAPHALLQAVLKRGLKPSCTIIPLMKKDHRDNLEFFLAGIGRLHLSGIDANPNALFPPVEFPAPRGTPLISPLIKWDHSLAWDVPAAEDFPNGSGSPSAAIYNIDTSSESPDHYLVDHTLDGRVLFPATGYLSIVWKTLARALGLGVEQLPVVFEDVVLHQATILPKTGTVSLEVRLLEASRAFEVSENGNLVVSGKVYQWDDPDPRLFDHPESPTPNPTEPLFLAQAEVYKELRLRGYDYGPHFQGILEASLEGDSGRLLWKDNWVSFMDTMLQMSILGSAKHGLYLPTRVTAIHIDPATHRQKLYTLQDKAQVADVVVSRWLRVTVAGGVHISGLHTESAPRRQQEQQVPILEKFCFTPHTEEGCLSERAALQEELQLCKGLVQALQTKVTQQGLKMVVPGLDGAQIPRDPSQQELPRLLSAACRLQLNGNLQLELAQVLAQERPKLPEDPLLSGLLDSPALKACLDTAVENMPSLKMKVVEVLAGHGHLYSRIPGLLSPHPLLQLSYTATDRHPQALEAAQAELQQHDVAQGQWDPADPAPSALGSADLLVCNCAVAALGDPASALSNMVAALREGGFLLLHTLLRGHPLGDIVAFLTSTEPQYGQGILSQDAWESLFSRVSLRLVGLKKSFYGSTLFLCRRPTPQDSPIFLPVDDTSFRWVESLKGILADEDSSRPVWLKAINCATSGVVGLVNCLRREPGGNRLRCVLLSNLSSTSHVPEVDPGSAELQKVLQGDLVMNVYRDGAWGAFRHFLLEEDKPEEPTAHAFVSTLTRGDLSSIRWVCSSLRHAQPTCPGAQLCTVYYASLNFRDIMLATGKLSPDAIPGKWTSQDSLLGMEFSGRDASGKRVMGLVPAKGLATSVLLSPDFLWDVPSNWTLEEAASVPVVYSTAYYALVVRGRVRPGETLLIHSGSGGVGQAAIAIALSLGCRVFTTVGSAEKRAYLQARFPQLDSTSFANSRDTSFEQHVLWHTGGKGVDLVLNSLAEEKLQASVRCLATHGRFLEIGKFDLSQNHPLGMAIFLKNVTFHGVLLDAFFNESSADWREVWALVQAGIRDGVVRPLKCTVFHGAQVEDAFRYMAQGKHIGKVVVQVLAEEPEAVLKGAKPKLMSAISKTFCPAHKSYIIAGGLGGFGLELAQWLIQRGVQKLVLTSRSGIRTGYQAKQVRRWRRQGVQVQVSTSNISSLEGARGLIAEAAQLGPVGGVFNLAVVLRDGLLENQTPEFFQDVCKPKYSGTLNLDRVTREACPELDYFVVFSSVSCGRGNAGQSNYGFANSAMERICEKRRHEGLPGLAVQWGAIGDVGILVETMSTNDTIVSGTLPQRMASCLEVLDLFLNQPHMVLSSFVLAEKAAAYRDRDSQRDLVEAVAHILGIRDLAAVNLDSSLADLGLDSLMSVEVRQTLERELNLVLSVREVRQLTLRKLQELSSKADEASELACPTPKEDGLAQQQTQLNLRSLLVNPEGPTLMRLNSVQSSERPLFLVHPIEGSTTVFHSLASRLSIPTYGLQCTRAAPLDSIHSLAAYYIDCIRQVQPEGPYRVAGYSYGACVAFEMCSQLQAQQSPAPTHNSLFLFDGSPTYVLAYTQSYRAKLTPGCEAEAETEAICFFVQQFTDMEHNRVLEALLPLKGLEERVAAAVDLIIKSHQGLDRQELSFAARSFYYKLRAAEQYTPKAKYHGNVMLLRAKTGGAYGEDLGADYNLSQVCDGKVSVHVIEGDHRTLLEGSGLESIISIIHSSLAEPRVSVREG
T1 sequence (P19096 whole entry): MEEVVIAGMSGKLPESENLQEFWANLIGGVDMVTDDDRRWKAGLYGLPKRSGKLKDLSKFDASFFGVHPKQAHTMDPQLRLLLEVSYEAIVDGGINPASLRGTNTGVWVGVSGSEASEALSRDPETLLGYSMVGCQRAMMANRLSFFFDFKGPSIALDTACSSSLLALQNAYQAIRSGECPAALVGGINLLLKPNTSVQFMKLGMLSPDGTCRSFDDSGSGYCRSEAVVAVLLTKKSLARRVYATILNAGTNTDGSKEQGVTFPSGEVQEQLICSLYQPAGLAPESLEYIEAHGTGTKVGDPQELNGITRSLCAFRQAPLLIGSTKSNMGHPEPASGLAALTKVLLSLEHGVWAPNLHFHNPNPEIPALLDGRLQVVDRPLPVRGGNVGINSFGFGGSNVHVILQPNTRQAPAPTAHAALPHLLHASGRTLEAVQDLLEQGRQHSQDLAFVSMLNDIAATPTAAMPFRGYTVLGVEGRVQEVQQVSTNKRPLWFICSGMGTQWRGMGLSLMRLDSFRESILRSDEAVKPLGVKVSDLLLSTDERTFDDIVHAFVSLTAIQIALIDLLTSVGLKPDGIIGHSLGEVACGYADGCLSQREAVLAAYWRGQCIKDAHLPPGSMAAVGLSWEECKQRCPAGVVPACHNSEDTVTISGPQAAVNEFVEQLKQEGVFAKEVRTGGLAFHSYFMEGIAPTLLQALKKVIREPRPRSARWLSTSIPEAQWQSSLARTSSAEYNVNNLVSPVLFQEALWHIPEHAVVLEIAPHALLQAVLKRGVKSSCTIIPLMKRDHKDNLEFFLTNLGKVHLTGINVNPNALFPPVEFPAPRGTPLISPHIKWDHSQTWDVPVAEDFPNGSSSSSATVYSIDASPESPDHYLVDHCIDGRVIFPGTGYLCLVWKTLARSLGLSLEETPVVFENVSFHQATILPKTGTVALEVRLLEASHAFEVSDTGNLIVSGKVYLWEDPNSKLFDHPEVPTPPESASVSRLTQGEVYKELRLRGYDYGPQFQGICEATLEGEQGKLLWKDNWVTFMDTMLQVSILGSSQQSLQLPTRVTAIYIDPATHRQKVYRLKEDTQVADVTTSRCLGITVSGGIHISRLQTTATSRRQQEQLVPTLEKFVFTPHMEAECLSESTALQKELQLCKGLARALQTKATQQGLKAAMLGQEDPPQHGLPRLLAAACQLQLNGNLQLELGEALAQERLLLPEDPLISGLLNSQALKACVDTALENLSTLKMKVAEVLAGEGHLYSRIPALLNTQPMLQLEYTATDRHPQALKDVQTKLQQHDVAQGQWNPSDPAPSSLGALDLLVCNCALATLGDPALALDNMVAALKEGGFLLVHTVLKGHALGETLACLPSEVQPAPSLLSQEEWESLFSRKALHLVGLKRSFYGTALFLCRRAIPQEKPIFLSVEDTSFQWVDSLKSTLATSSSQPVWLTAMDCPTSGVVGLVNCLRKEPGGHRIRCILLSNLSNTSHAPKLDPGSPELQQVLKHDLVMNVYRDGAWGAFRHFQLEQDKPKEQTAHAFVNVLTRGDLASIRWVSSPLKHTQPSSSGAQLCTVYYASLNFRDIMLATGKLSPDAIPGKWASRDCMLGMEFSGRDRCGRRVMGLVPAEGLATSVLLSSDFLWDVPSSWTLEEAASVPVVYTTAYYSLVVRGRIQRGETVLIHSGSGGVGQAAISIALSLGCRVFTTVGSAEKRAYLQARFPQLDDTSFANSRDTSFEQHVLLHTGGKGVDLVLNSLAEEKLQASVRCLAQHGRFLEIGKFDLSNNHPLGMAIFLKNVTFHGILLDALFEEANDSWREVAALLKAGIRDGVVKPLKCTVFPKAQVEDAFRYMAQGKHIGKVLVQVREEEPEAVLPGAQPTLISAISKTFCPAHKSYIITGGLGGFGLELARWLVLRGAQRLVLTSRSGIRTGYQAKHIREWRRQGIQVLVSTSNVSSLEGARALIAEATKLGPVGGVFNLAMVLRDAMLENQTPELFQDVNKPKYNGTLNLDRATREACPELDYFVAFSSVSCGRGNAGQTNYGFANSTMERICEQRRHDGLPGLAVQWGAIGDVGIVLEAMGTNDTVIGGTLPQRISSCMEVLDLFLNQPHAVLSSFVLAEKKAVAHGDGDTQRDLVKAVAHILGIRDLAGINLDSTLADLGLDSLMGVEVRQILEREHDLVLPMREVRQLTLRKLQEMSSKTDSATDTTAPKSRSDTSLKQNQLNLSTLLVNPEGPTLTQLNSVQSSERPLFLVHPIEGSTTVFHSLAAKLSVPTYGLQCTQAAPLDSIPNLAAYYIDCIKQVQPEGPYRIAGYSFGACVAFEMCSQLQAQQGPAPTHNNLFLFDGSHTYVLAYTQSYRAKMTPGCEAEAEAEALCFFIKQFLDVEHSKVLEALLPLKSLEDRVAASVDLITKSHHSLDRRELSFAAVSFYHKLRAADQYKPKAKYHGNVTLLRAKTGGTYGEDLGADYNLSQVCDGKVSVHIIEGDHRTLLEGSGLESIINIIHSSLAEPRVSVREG

Turning to `C=C1C(=O)OC(CCCCCCCC)C1C(=O)O` (stereo not shown) [C75], the “levels of reduction of the FAS enzyme activity, C75 compared with AIM” value in data set [1] is listed as “almost the same”. Also, in data set [2], the “amount of neuropeptide Y (NPY) produced in the hypothalamus” value is reported as “reduces”, the appetite result was “remarkable loss of appetite” and the body weight entry was “body weight loss; also recorded: totally accelerated”.

B1: human AIM: protein consisting of the amino acid sequence shown in SEQ ID NO: 1; recombinant, purified from HEK293T culture supernatant (protein)
chain: MALLFSLILAICTRPGFLASPSGVRLVGGLHRCEGRVEVEQKGQWGTVCDDGWDIKDVAVLCRELGCGAASGTPSGILYEPPAEKEQKVLIQSVSCTGTEDTLAQCEQEEVYDCSHDEDAGASCENPESSFSPVPEGVRLADGPGHCKGRVEVKHQNQWYTVCQTGWSLRAAKVVCRQLGCGRAVLTQKRCNKHAYGRKPIWLSQMSCSGREATLQDCPSGPWGKNTCNHDEDTWVECEDPFDLRLVGGDNLCSGRLEVLHKGVWGSVCDDNWGEKEDQVVCKQLGCGKSLSPSFRDRKCYGPGVGRIWLDNVRCSGEEQSLEQCQHRFWGFHDCTHQEDVAVICSG
modifications: human
notes: recombinant, purified from HEK293T culture supernatant
On to B1, for which, in data set [3], the “differentiation of 3T3-L1 cells derived from mice / differentiation inhibitory function” value was “inhibited; also recorded: similarly exerted”. Also, in data set [4], the “lipolysis induction function in adipocytes derived from mice” value was “similarly exerted”. In data set [5] (rhAIM 10 μg/mL during 3 days adipogenesis induction, oil-red-o), the “differentiation of HMSCs” value is recorded as “dramatically inhibited”. Also, the “mRNA level of Glut-4” value in data set [5] (rhAIM 10 μg/mL, RT-PCR, compared with absence of rhAIM) was “remarkably decreased”.

B2: HA-AIM: AIM (mouse AIM) fused with an HA-tag (protein)
chain: ESPTKVQLVGGAHRCEGRVEVEHNGQWGTVCDDGWDRRDVAVVCRELNCGAVIQTPRGASYQPPASEQRVLIQGVDCNGTEDTLAQCELNYYVFDCSHEEDAGAQCENPDSDLLFIPEDVRLVDGPGHCQGRVEVLHQSQWSTVCKAGWNLQVSKVVCRQLGCGRALLTYGSCNKNTQGKGPIWMGKMSCSGQEANLRSCLLSRLENNCTHGEDTWMECEDPFELKLVGGDTPCSGRLEVLHKGSWGSVCDDNWGEKEDQVVCKQLGCGKSLHPSPKTRKIYGPGAGRIWLDDVNCSGKEQSLEFCRHRLWGYHDCTHKEDVEVICTDFDV
modifications: left off: small tags and cut ends
notes: AIM (mouse AIM) fused with an HA-tag
Turning to B2, the “co-precipitation with FLAG-tagged FAS” value in data set [6] is listed as “co-precipitation”; in data set [6] (listed as mouse AIM tagged with HA), “co-precipitated mutually”.
